Measurements reported in US20250289893A1 (OXFORD UNIVERSITY INNOVATION, published 2025).
Positions count from the first letter of the chain named.

B1: 110 (VR12112) (antibody, V domains shown)
VH: QSVEESGGRLVTPGTPLTLTCTVSGFSLSSYAMIWVRQAPGKGLEWIGIINSSDNTHYATWAKGRFTISKTSTTVDLKITSPTTEDTATYFCARDPYDYGYGWYFDLWGPGTLVTVSS
VL: AQVLTQTPSPVSAAVGGTVTINCQASQSVFNNKNLAWYQQKPGQPPKLLIYKASTLASGVSSRFKGSGSGTQFALTISGVQCDDAATYYCQGEFSCSSTDCVTFGGGTEVVVK
notes: also called OX110; antibody 110
B2: 116 (VR12117) (antibody, V domains shown)
VH: QSVEESGGRLVTPGTPLTLTCTVSGFSLSNYAMSWVRQAPGKGLEWIGIIYTTGFTYYASWVKGRFTISKTSTTVDLKITSPTTEDTATYFCARGLATYVSPPTRLDLWGQGTLVTVSS
VL: AQVLTQTPSPVSAAVGGTVTINCQASQSIYNSKNLAWYQQKPGQPPKLLIYSASTLASGVPSRFKGSGSGTQFTLTISDLECDDAATYYCQGEFSCSSVDCATFGGGTEVVVK
notes: also called OX116
B3: 77A (VR11851) (antibody, V domains shown)
VH: QSVEESGGRLVTPGTPLTLTCTVSGFSLSSYAMSWVRQAPGKGLEWIGIISSSGTTYYASWAKGRFTISKTSTTVDLKITSPTTEDTATYFCARVDYYSSGWGGLWGPGTLVTVSS
VL: AVEMTQTPASMSAAVGGTVTIKCQASEDIYSNLAWYQQKPGQPPKLLIYGASTLASGVPSRFKGSGSGTEYTLTISGVQCDDAATYYCQCTYDTSSYGNTFGGGTEMVVE
notes: also called OX77a; antibody 77a
B4: 111 (VR12113) (antibody, V domains shown)
VH: QSVEESGGRLVTPGTPLTLTCTASGFSLSTYAMSWVRQAPGKGLEWIGIISSSGSTYYASWAKGRFTISKTSTTVDLKITSPTTEDTATYFCARETWYWLDLWGQGTLVTVSS
VL: B3 VL with M11V, K22N, T91A, T94S, N99T, T100P, M107V, E110K
notes: also called OX111

target: T1, human CD1a protein (pool B) (human, UniProt P06126 18-295, limits assumed); experiment: SPR (Biacore T200), antibody captured, human CD1a titrated, 1:1 binding model
T1 construct: Recombinant protein of the ELISA (coated) and the Biacore T200 titration; whole entry named; also called human CD1a pool B; full length CD1a
T1 sequence (P06126 18-295 limits assumed): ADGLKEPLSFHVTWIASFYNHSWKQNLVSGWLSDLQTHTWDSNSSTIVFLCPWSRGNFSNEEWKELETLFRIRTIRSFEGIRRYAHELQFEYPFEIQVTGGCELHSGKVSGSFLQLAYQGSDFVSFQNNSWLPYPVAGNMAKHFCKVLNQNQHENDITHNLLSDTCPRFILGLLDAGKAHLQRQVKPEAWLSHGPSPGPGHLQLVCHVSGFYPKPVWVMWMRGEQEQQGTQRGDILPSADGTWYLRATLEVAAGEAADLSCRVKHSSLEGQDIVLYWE
Method: The affinity of the purified antibodies to human CD1a was assessed using a Biacore T200 instrument (GE Healthcare) by capturing the antibody to an immobilized anti-species IgG F(ab′)2 followed by titration of human CD1a. Affinipure Goat anti-species IgG-F(ab′)2 fragment specific (Jackson ImmunoResearch) was immobilized on a CM5 Sensor Chip (GE Healthcare) via amine coupling chemistry to a capture level of ˜5000 response units (RUs). HBS-EP+ buffer (10 mM HEPES pH 7.4, 0.15 M NaCl, 3 mM EDTA, 0.05% Surfactant P20, GE Healthcare) was used as the running buffer with a flow rate of 10 μL/min. A 10 μL injection of test antibody at 0.5 μg/mL was used for capture by the immobilized Goat Anti-species Fab.
The surface was regenerated between cycles by injection of 2×10 μL of 40 mM HCl, interspersed by a 10 μL injection of 5 mM NaOH at flowrate of 10 μL/min. Background subtraction binding curves were analyzed using the Biacore T200 evaluation software following standard procedures. Kinetic parameters were determined from the fitting algorithm. This assay was performed at the clone supernatant and purified antibody stage.
Affinity was required to be <100 nM to be considered for progression.

| Binder | Kd [nM] | koff [s⁻¹] | kon [M⁻¹ s⁻¹] |
| --- | --- | --- | --- |
| B1 | 1.97 |  |  |
| B2 | 2.89 | 0.0014 | 483000 |
| B3 | 0.24 | 0.000113 | 469000 |
| B4 | ≤ 0.0312 | < 1e-05 | 321000 |

target: T2, human CD1a expressed on cells (human, UniProt P06126 17-327; P61769 21-119); experiment: flow cytometry, MOLT4 cells, 100 µg/ml antibody
T2 construct: also called HEK - CD1a; C1R - CD1a
Method: (§1) CD1a-specific antibodies were identified by flow cytometry. Binding to proteins expressed on HEK, C1R and MOLT4 cell lines was assessed. […] The C1R-CD1a, C1R-empty vector and MOLT4 cell lines were washed in 1×PBS on the day required. All cell lines were counted and resuspended in 1×PBS and then stained for 30 minutes at 37° C. using the DiI or DiO cellular stains (Invitrogen). Cells were washed with flow cytometry buffer (1% bovine serum albumin, 2 mM EDTA and 0.1% sodium azide in PBS) before mixing 2 DiI-stained and DiO-stained populations together. The cells (20 μl/well) were then added to dilutions of antibody sample (B cell culture supernatant, TAP supernatant, clone supernatant, purified antibody solution) (20 μl/well) and incubated for 1 hour at 4° C. in a flow cytometry assay plate, before being washed with flow cytometry buffer. 10 μl/well of Alexafluor647-conjugated goat anti-species IgG Fc-specific F(ab′)2 fragment (Jackson ImmunoResearch), diluted 1:2500 in flow cytometry buffer, was added and incubated at 4° C. for 30 minutes, followed by washing with wash buffer. The fluorescence intensity was then measured on an iQue screener PLUS.
(§2) Binding was quantified as fold change in fluorescence intensity geomean over background assessed by flow cytometry.

| Binder | Fluorescence Intensity Geomean (normalized to background) [fold over background] |
| --- | --- |
| B1 | 5.2 |
| B2 | 3.7 |
| B3 | 0.8 |
| B4 | 3.9 |

target: T3, human CD1b expressed on HEK-293 cells (human, UniProt P29016 18-333; P61769 21-119); experiment: flow cytometry, HEK-293 cells, 100 µg/ml antibody
T3 construct: also called HEK - CD1b
Method: (§3) Binding to proteins expressed on HEK, C1R and MOLT4 cell lines was assessed. […] The C1R-CD1a, C1R-empty vector and MOLT4 cell lines were washed in 1×PBS on the day required. All cell lines were counted and resuspended in 1×PBS and then stained for 30 minutes at 37° C. using the DiI or DiO cellular stains (Invitrogen). Cells were washed with flow cytometry buffer (1% bovine serum albumin, 2 mM EDTA and 0.1% sodium azide in PBS) before mixing 2 DiI-stained and DiO-stained populations together. The cells (20 μl/well) were then added to dilutions of antibody sample (B cell culture supernatant, TAP supernatant, clone supernatant, purified antibody solution) (20 μl/well) and incubated for 1 hour at 4° C. in a flow cytometry assay plate, before being washed with flow cytometry buffer. 10 μl/well of Alexafluor647-conjugated goat anti-species IgG Fc-specific F(ab′)2 fragment (Jackson ImmunoResearch), diluted 1:2500 in flow cytometry buffer, was added and incubated at 4° C. for 30 minutes, followed by washing with wash buffer. The fluorescence intensity was then measured on an iQue screener PLUS.
(§4) HEK-293 cells were transiently transfected with human CD1a, CD1b, CD1c or CD1d and co-transfected with human β2M.

| Binder | Fluorescence Intensity Geomean (normalized to background) [fold over background] |
| --- | --- |
| B1 | 1.1 |
| B2 | 1.1 |
| B3 | 1 |
| B4 | 1.1 |

target: T4, human CD1c expressed on HEK-293 cells (human, UniProt P29017 18-333; P61769 21-119); experiment: flow cytometry, HEK-293 cells, 100 µg/ml antibody
T4 construct: also called HEK - CD1c
Method: as §3, §4

| Binder | Fluorescence Intensity Geomean (normalized to background) [fold over background] |
| --- | --- |
| B1 | 1 |
| B2 | 1 |
| B3 | 0.9 |
| B4 | 1.1 |

target: T5, human CD1d expressed on HEK-293 cells (human, UniProt P15813 20-335; P61769 21-119); experiment: flow cytometry, HEK-293 cells, 100 µg/ml antibody
T5 construct: also called HEK - CD1d
Method: as §3, §4

| Binder | Fluorescence Intensity Geomean (normalized to background) [fold over background] |
| --- | --- |
| B1 | 1.1 |
| B2 | 1 |
| B3 | 1 |
| B4 | 1.1 |

target: T2, human CD1a expressed on cells; experiment: flow cytometry, HEK-293 cells, 100 µg/ml antibody
Method: as §3, §4

| Binder | Fluorescence Intensity Geomean (normalized to background) [fold over background] |
| --- | --- |
| B1 | 5.9 |
| B2 | 3.9 |
| B3 | 4.1 |
| B4 | 4.3 |

target: T2, human CD1a expressed on cells; experiment: flow cytometry, MOLT4 cells, 31.6 µg/ml antibody
Method: as §1, §2

| Binder | Fluorescence Intensity Geomean (normalized to background) [fold over background] |
| --- | --- |
| B1 | 7.5 |
| B2 | 5.6 |
| B3 | 2.2 |
| B4 | 5.4 |

Target: T6, Cynomolgus monkey CD1a protein (Cynomolgus monkey)
T6 chain: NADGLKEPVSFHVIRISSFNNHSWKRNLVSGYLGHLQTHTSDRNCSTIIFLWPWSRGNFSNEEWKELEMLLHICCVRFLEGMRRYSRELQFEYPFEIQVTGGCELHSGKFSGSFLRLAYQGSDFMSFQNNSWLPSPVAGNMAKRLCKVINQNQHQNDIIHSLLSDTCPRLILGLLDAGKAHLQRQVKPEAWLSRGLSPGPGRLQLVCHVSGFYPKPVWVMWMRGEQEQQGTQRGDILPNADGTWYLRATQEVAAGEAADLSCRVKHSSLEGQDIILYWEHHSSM
Experiment: ELISA, 10 µg/ml antibody

| Binder | Optical Density (OD) |
| --- | --- |
| B1 | 0.86 |
| B2 | 0.16 |
| B3 | 0.52 |
| B4 | 0.79 |

target: Chinese variant CD1a protein (human) (UniProt P06126); experiment: ELISA, 0.1 µg/ml antibody
Sequence (P06126 18-295, change not shown): as the sequence (P06126 18-295 limits assumed) above

| Binder | Optical Density (OD) |
| --- | --- |
| B1 | 1.57 |
| B2 | 1.53 |
| B3 | 1.05 |
| B4 | 1.52 |

target: T2, human CD1a expressed on cells; experiment: flow cytometry, C1R cells, 31.6 µg/ml antibody
Method: as §3, §2

| Binder | Fluorescence Intensity Geomean (normalized to background) [fold over background] |
| --- | --- |
| B1 | 6.2 |
| B2 | 13.7 |
| B3 | 1.3 |
| B4 | 7 |

target: T1, human CD1a protein (pool B); experiment: ELISA, 10 µg/ml antibody
Method: (§5) CD1a-specific antibodies were identified by ELISA. […] 20 μl/well of peroxidase-conjugated goat anti-species IgG Fc-specific F(ab′)2 fragment (Jackson ImmunoResearch), diluted 1:5000 in block buffer was added and incubated at room temperature for 1 hour, followed by washing with wash buffer.
(§6) The antibodies were titrated through a dilution series and compared to a control rabbit IgG antibody.

| Binder | Optical Density (OD) |
| --- | --- |
| B1 | 1.28 |
| B2 | 1.18 |
| B3 | 1.34 |
| B4 | 1.12 |

target: T7, chimeric CD1a pool B protein [human CD1a lipid binding domain, mouse CD1d Ig domain] (human; mouse, UniProt P06126 18-201; P11609 205-297, limits assumed); experiment: ELISA, 100 µg/ml antibody
T7 sequence (P06126 other isoform, or with tags, fused parts or gaps mutant limits assumed): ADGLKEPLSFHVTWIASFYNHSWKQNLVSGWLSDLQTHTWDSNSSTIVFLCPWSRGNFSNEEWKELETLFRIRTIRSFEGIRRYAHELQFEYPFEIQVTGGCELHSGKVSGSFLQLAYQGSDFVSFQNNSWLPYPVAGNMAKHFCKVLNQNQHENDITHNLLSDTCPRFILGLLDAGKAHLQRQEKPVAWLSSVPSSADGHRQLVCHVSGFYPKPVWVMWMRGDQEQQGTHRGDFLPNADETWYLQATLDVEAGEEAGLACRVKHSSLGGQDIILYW
Method: as §5
(§7) The antibodies were titrated through a dilution series and compared to a control rabbit IgG antibody. […] Data shown for purified antibodies.

| Binder | Optical Density (OD) |
| --- | --- |
| B1 | 1.4 |
| B2 | 1.37 |
| B3 | 1.27 |
| B4 | 1.27 |

Target: T6, Cynomolgus monkey CD1a protein
Experiment: ELISA, 0.01 µg/ml antibody

| Binder | Optical Density (OD) |
| --- | --- |
| B1 | 0.22 |
| B2 | 0.07 |
| B3 | 0.1 |
| B4 | 0.48 |

target: T7, chimeric CD1a pool B protein [human …; experiment: ELISA, 1 µg/ml antibody
Method: as §5, §7

| Binder | Optical Density (OD) |
| --- | --- |
| B1 | 1.45 |
| B2 | 1.42 |
| B3 | 1.26 |
| B4 | 1.36 |

target: T1, human CD1a protein (pool B); experiment: ELISA, 0.0316 µg/ml antibody
Method: as §5, §6

| Binder | Optical Density (OD) |
| --- | --- |
| B1 | 0.81 |
| B2 | 0.95 |
| B3 | 1.25 |
| B4 | 1.1 |

target: T7, chimeric CD1a pool B protein [human …; experiment: ELISA, 0.0316 µg/ml antibody
Method: as §5, §7

| Binder | Optical Density (OD) |
| --- | --- |
| B1 | 0.73 |
| B2 | 1.13 |
| B3 | 1.09 |
| B4 | 1.19 |

target: T3, human CD1b expressed on HEK-293 cells; experiment: flow cytometry, HEK-293 cells, 0.0316 µg/ml antibody
Method: as §3, §4

| Binder | Fluorescence Intensity Geomean (normalized to background) [fold over background] |
| --- | --- |
| B1 | 1 |
| B2 | 1 |
| B3 | 0.9 |
| B4 | 1 |

target: T4, human CD1c expressed on HEK-293 cells; experiment: as above
Method: as §3, §4

| Binder | Fluorescence Intensity Geomean (normalized to background) [fold over background] |
| --- | --- |
| B1 | 1 |
| B2 | 1 |
| B3 | 1 |
| B4 | 1 |

target: T5, human CD1d expressed on HEK-293 cells; experiment: as above
Method: as §3, §4

| Binder | Fluorescence Intensity Geomean (normalized to background) [fold over background] |
| --- | --- |
| B1 | 1 |
| B2 | 1 |
| B3 | 0.9 |
| B4 | 1 |

target: T2, human CD1a expressed on cells; experiment: as above
Method: as §3, §4

| Binder | Fluorescence Intensity Geomean (normalized to background) [fold over background] |
| --- | --- |
| B1 | 8.9 |
| B2 | 15.7 |
| B3 | 24.9 |
| B4 | 11.1 |

target: T2, human CD1a expressed on cells; experiment: flow cytometry, MOLT4 cells, 0.1 µg/ml antibody
Method: as §1, §2

| Binder | Fluorescence Intensity Geomean (normalized to background) [fold over background] |
| --- | --- |
| B1 | 16.8 |
| B2 | 22.6 |
| B3 | 12.4 |
| B4 | 20.6 |

target: T3, human CD1b expressed on HEK-293 cells; experiment: flow cytometry, HEK-293 cells, 0.316 µg/ml antibody
Method: as §3, §4

| Binder | Fluorescence Intensity Geomean (normalized to background) [fold over background] |
| --- | --- |
| B1 | 1 |
| B2 | 1 |
| B3 | 1.1 |
| B4 | 1 |

target: T4, human CD1c expressed on HEK-293 cells; experiment: as above
Method: as §3, §4

| Binder | Fluorescence Intensity Geomean (normalized to background) [fold over background] |
| --- | --- |
| B1 | 0.9 |
| B2 | 1.1 |
| B3 | 1 |
| B4 | 1 |

target: T5, human CD1d expressed on HEK-293 cells; experiment: as above
Method: as §3, §4

| Binder | Fluorescence Intensity Geomean (normalized to background) [fold over background] |
| --- | --- |
| B1 | 1 |
| B2 | 1 |
| B3 | 1 |
| B4 | 0.9 |

target: T2, human CD1a expressed on cells; experiment: as above
Method: as §3, §4

| Binder | Fluorescence Intensity Geomean (normalized to background) [fold over background] |
| --- | --- |
| B1 | 38.3 |
| B2 | 36.5 |
| B3 | 58.6 |
| B4 | 30.8 |
